{"source": "paper PMC7891396", "molecular_target": "Int^C-eGFP-H6 with the C124A and N146A mutations (construct 9), inactivated C-terminal precursor of the AceL NrdHF split intein (not stated (metagenomic contig from the Antarctic Ace Lake, might originate from a bacteriophage))", "assay": "MST; Monolith NT.115; 9 at 8.8 nM (eGFP as fluorophore), 1 in a dilution series from 2500 to 0.61 nM; BSA 0.05 % (w/v) and Tween-20 0.1 % (v/v) added; 20 % MST power, 20 % blue LED; four parametric sigmoidal fit"}
{"substance": "MBP-Int^N-H6 (1), N-terminal precursor of the AceL NrdHF split intein (domain or fragment)", "values": [{"measurement": "Kd", "result": 82.2, "unit": "nM"}]}
